Tests used:
[1] = target: NKG2D on human NK cells (human (endogenous in NK cells and CD8+ T cells from PBMC)) (UniProt P26718)
[2] = target: NKG2D on human NK cells (human (endogenous in NK cells and CD8+ T cells from PBMC)) (UniProt P26718); remark: listed apart in the source
[3] = target: NKG2D on human NK cells (human (endogenous in NK cells and CD8+ T cells from PBMC)) (UniProt P26718); remark: listed apart in the source
[4] = target: NKG2D on human NK cells (human (endogenous in NK cells and CD8+ T cells from PBMC)) (UniProt P26718); remark: listed apart in the source
[5] = target: NKG2D on human NK cells (human (endogenous in NK cells and CD8+ T cells from PBMC)) (UniProt P26718); remark: listed apart in the source
[6] = target: NKG2D on human NK cells (human (endogenous in NK cells and CD8+ T cells from PBMC)) (UniProt P26718); remark: listed apart in the source
[7] = target: NKG2D on human NK cells (human (endogenous in NK cells and CD8+ T cells from PBMC)) (UniProt P26718); remark: listed apart in the source

UniProt P26718, sequence (P26718 whole entry): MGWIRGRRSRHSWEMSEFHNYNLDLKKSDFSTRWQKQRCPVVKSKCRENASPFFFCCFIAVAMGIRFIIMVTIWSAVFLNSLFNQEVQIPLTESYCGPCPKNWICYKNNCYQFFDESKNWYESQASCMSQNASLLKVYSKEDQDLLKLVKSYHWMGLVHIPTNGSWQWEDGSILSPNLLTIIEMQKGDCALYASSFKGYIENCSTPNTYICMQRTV

NKG2D expression on CD56brightCD16+ NK cells after 4 and 24 h, lower with L-MICA-129Met than with L-MICA-129Val clones (%-points lower than with L-MICA-129Val) [1]	NKG2D expression on CD56brightCD16- NK cells after 4 and 24 h, lower with L-MICA-129Met than with L-MICA-129Val clones (%-points lower than with L-MICA-129Val) [1]	NKG2D expression on CD56dimCD16+ NK cells after 4 and 24 h, lower with L-MICA-129Met than with L-MICA-129Val clones (%-points lower than with L-MICA-129Val) [1]	down-regulation of NKG2D on CD8+ T cells co-cultured with L cell clones: MFI of NKG2D, difference to L-MICA-129Val (MFI units more than with L-MICA-129Val) [2]	down-regulation of NKG2D on CD8+ T cells co-cultured with L cell clones: proportion of NKG2D+CD3+CD8+ cells, difference to L-MICA-129Val (%-points more than with L-MICA-129Val) [2]	regression coefficient of the MFI of CD107a on NK cells against MICA expression intensity on target clones [3]	regression coefficient of the MFI of IFNγ in CD56brightCD16- NK cells against MICA expression intensity [4]	down-regulation of NKG2D on NK cells co-cultured 4 and 24 h with L cell clones: MFI of NKG2D against L-con [5]	down-regulation of NKG2D on NK cells co-cultured 4 and 24 h with L cell clones: percentage of NKG2D+ NK cells against L-con [5]	down-regulation of NKG2D on NK cells: percentage of NKG2D+ cells, difference between L-MICA-129Met and L-MICA-129Val targets (%-points against L-MICA-129Val) [5]	IFNγ release (ELISA) of NK cells co-cultured 24 h with L cell clones, difference to L-MICA-129Val, adjusted for MICA expression (pg/ml higher than with L-MICA-129Val) [7]	IFNγ release (ELISA) of NK cells, effect of MICA expression intensity on target clones (pg/ml per MFI unit) [7]	degranulation of NK cells exposed to L cell clones: MFI of CD107a, difference to L-MICA-129Met, adjusted for MICA expression (MFI units lower than with L-MICA-129Met) [3]	degranulation of NK cells exposed to L cell clones: percentage of CD107a+ NK cells, difference to L-MICA-129Met, adjusted for MICA expression (%-points less than with L-MICA-129Met) [3]	intracellular IFNγ (MFI) in CD56brightCD16- NK cells co-cultured 4 h with L cell clones, difference to L-MICA-129Met (MFI units lower than with L-MICA-129Met) [4]	percentage of IFNγ+ CD56brightCD16- NK cells co-cultured 4 h with L cell clones, difference to L-MICA-129Met (%-points less than with L-MICA-129Met) [4]	regression coefficient of the proportion of IFNγ+ CD56brightCD16- NK cells against MICA expression intensity [4]	relative lysis of L cell clones by LAK cells (51Cr release, E:T 200:1), difference to L-MICA-129Met, adjusted for MICA expression (%-points reduced against L-MICA-129Met) [6]	IFNγ release (ELISA) of NK cells, effect of MICA expression intensity on target clones (pg/ml per MFI unit of MICA) [7]	Substance	regression coefficient of killing by LAK cells against MICA expression intensity on target clones [6]
16.2	15.8	19.5	12.1	35.8	0.05	-1.11	13.7 MFI units	19.4 %-points	-9.3	176	0.142								MICA-129Met variant (MICA*00701 allele) expressed on L cells (from UniProt Q29983 24-383) (ligand)	-0.0834
					0.29	0.09	11.8 MFI units	9.5 %-points				38.5	10.1	12.5	7.5	0.14	13	1.1	MICA-129Val variant (MICA*00701 with valine at position 129) expressed on L cells (from UniProt Q29983 24-383) (ligand)	0.126
